Key:
[1] = Critical Micelle Concentration of POD dispersion; format: physicochemical; conditions: 150 mM Tris/CL buffer pH 9.0
Protocol: In one example 10 μmoles of methoxypolyethylene glycol 2000-diortho ester-distearoyl glycerol conjugate was dried from a chloroform solution unto the sides of a glass vessel. […] Under these conditions the POD has a Critical Micelle Concentration (CMC) of about 10 μM and micelles will be formed. An aliquot of 0.05 mL of the POD micelles is added to 1 mL of a 10 mM (total lipid) liposome suspension consisting of DSPC:Chol in the mole ratio of 55:40 in a 0.14 M NaCl-10 mM Tris, pH 8.0 buffer. The mixture is incubated at 37° C. for 2 hours. After this time the POD is incorporated into the liposome and the liposome can be injected into an animal.

[2] = Acid sensitivity of POD as monitored by thin layer chromatography; format: physicochemical; conditions: for degradation of POD (disappearance of the compound spot at Rf~0.4): within one hour
Protocol: Conical polystyrene microcentrifuge tubes (0.5 mL) containing 20 μL 100 mM sodium phosphate buffer of different pH were pre-warmed at 37° C. for 30 min and silica gel TLC plates (WhatmanCE from Whatman Ltd, Maidstoned, Kent, England) were pre-equilibrated with the solvent system (CHCl3/MeOH/NH4OH=100:15:1) by running the plates without samples followed by brief air-drying. Eight milligrams of POD was dissolved into 100 μL water by vortexing and 20 μL of the solution was added into each of the pre-warmed tubes and mixed thoroughly. The tubes were incubated at 37° C. and 10 μL of the solutions were aliquoted at different time points and mixed with 10 μL of 10% concentrated NH4OH (30% w/w) in acetone to stop the hydrolysis. Five microliters of the mixture was spotted onto pre-equilibrated TLC plates. Three microliters of distearoyl glycerol, monomethyl ether of PEG2000 and POD in 10 mg1 mL CHCl3 solution were also spotted as standards. TLC plates were developed, heated at 150° C. for 5 min and stained in I2 chamber for 1 h to observe the locations of POD and its degradation products.

Question: With “3,9-Diethyl-3-(2,3-distearoyloxypropyloxy)-9-(methoxypolyethyleneglycol2000-1-yl)-2,4,8,10-tetraoxaspiro[5,5]undecane [POD]” as the substance, how does the “Critical Micelle Concentration (CMC)” value [1] read?
Answer: about 10 μM

Question: What about the “degradation of POD” value ([2]; buffer of neutral pH 7.4, 37° C., over 3 hours) of the same substance?
Answer: most of the conjugate remained intact

Question: And the “approximate half-life of POD degradation” value ([2]; buffer of pH 6, 37° C.)?
Answer: ~2.5 h

Question: And the “degradation of POD (disappearance of the compound spot at Rf~0.4)” value ([2]; buffer pH 4, 37° C.)?
Answer: completely degraded

Question: And the “degradation of POD (disappearance of the compound spot at Rf~0.4)” value ([2]; buffer pH 5, 37° C.)?
Answer: completely degraded
